# Data: patent US20250270301A1 (GEN2 NEUROSCIENCE, published 2025)
# Residue numbers refer to the chain shown, from its start.
# B1: #44_VH4VK4_H10/pVL (antibody, V domains shown)
# VH: QVQLQESGPGLVKPSETLSLTCTVSGIDLSSYAMAWVRQAPGKGLEWIGAIDARGRTFYASWVKGRFTISKDTSKTTVDLQMTSLTAEDTATYFCARDSGAFDPWGQGTLVTVSS
# VL: DIQMTQSPSSLSASVGDRVTITCQASQSVYDNYLAWYQQKPGQPPKLLIHAASNLASGVPSRFSGSGSGTEFTLTISSLQPDDFATYYCLGEFSCTTTDCNVFGGGTKVEIK
# notes: also called Clone VH4_H10; #44_VH4_H10
# B2: #44_VH4VK4_H12/pVL (antibody, V domains shown)
# VH: B1 VH with R56S
# VL: B1 VL
# notes: also called Clone VH4_H12; #44_VH4_H12
# B3: #44_VH4VK4_H20/pVL (antibody, V domains shown)
# VH: B1 VH with A53S, R56S
# VL: B1 VL
# notes: also called Clone VH4_H20; #44_VH4_H20
# B4: #44_VH4VK4 pVH/L2 (antibody, V domains shown)
# VH: B1 VH with A50C, A53R, R56G
# VL: DIQMTQSPSSLSASVGDRVTITCQASQSVYDNYLAWYQQKPGQPPKLLIHAASNLASGVPSRFSGSGSGTEFTLTISSLQPDDFATYYCLGEFSCQDTDCNVFGGGTKVEIKR
# notes: also called Clone VK4_L2; #44_VK4_L2
# B5: #44_VH4VK4_H15/pVL (antibody, V domains shown)
# VH: B1 VH with A53S, R54V, R56N
# VL: B1 VL
# notes: also called Clone VH4_H15; #44_VH4_H15
# B6: #44_VH4VK4_H11/pVL (antibody, V domains shown)
# VH: B1 VH with R56A
# VL: B1 VL
# notes: also called Clone VH4_H11; #44_VH4_H11
# B7: #44_VH4VK4_H17/pVL (antibody, V domains shown)
# VH: B1 VH with A53R, R54V, R56N
# VL: B1 VL
# notes: also called Clone VH4_H17; #44_VH4_H17
# B8: #44_VH4VK4_H13/pVL (antibody, V domains shown)
# VH: B1 VH with A53S, R54A, R56N
# VL: B1 VL
# notes: also called Clone VH4_H13; #44_VH4_H13
# B9: #44_VH4VK4_H14/pVL (antibody, V domains shown)
# VH: B1 VH with A53S, R54A, R56S, F67S
# VL: B1 VL
# notes: also called Clone VH4_H14; #44_VH4_H14
# B10: #44_VH4VK4_H16/pVL (antibody, V domains shown)
# VH: B1 VH with A53R, R54A, R56N
# VL: B1 VL
# notes: also called Clone VH4_H16; #44_VH4_H16
# B11: #44_VH4VK4_H18/pVL (antibody, V domains shown)
# VH: B1 VH with R54G, R56N
# VL: B1 VL
# notes: also called Clone VH4_H18; #44_VH4_H18
# B12: #44_VH4VK4_H19/pVL (antibody, V domains shown)
# VH: B1 VH with A53S, R56A
# VL: B1 VL
# notes: also called Clone VH4_H19; #44_VH4_H19
# Molecular target: T1, full length recombinant human 2N4R tau (human, UniProt P10636 1-758)
# T1 construct: bought from rPeptide; pHrodo Red maleimide-labelled where it stands in uptake assays; also called tau1-441; full length tau
# T1 sequence (P10636 other isoform, or with tags, fused parts or gaps limits assumed): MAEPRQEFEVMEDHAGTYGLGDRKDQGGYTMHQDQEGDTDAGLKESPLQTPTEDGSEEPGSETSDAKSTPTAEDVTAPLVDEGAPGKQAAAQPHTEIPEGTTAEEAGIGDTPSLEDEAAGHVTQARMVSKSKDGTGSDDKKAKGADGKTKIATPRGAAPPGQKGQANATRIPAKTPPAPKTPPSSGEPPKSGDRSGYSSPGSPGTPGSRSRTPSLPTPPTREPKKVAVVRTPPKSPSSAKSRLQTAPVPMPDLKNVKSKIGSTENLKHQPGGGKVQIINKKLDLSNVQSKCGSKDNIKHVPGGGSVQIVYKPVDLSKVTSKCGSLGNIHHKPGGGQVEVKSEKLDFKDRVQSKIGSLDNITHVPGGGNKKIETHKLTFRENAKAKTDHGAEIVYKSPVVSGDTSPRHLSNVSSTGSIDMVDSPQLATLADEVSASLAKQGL
# Test: SPR SCK, IgG on Protein A, tau in flow
"Fold change (KD, to pVH/pVL)",Kd [nM],koff [s⁻¹],kon [M⁻¹ s⁻¹],Binder
0.66,9.95,–,–,B1
1.09,6.04,0.251,4.16e+07,B2
0.75,8.78,0.0404,4.6e+06,B3
0.89,7.38,–,–,B4
0.75,8.76,0.0361,4.12e+06,B5
1.16,5.65,–,–,B6
1.03,6.36,0.306,4.81e+07,B7
0.38,17.3,0.0148,855000,B8
1.03,6.37,–,–,B9
0.69,9.51,–,–,B10
0.19,34.2,0.00983,287000,B11
0.68,9.72,0.0122,1.26e+06,B12

# Molecular target: T2, Bovine serum albumin (bovine, UniProt P02769 25-607)
# T2 construct: also called BSA
# T2 sequence (P02769 25-607 limits assumed): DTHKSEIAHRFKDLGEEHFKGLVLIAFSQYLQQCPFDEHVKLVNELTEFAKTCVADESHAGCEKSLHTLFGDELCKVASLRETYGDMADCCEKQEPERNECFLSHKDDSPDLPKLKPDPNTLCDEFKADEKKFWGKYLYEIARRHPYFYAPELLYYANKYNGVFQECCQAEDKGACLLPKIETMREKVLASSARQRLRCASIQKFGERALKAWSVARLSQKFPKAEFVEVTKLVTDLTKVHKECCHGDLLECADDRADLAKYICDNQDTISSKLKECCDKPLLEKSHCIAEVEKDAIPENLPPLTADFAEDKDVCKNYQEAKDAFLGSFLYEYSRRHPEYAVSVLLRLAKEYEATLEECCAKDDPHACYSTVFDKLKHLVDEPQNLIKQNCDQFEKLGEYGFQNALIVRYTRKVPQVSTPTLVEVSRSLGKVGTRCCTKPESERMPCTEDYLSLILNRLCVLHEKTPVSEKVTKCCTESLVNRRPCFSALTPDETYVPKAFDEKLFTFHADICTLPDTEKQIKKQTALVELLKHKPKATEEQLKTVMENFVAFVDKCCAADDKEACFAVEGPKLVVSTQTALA
# Test: ELISA on 1% BSA, HEK supernatant, anti-human IgG-HRP, n=1
row,Binder,binding result
1,B1,no binding (tested: 30 ng/ml (legend 1:100))
2,B2,no binding (tested: 30 ng/ml (legend 1:100))
3,B3,no binding (tested: 30 ng/ml (legend 1:100))
4,B4,no binding (tested: 30 ng/ml (legend 1:100))
5,B5,no binding (tested: 30 ng/ml (legend 1:100))
6,B6,no binding (tested: 30 ng/ml (legend 1:100))
7,B7,no binding (tested: 30 ng/ml (legend 1:100))
8,B8,no binding (tested: 30 ng/ml (legend 1:100))
9,B9,no binding (tested: 30 ng/ml (legend 1:100))
10,B10,no binding (tested: 30 ng/ml (legend 1:100))
11,B11,no binding (tested: 30 ng/ml (legend 1:100))
12,B12,no binding (tested: 30 ng/ml (legend 1:100))
